Here are results for one substance from PMC11965572.

In the assay the target is wild-type human ACE2-Fc (human) (UniProt Q9BYF1). Put plainly: SEC; protein A-purified wild-type ACE2-Fc fractionated on a Superdex 200 column.

Several values for one entry are separate records, joined by “and”; a condition that tells them apart may be missing. Equal entries are not always repeated.

The stoichiometry N is a count of units in the complex or per binding partner.

“wild-type human ACE2-Fc (from UniProt Q9BYF1 18-728) (Fc fusion)”: the percent as higher oligomers worked out at 18%; the percent as tetramers was determined as 9%; the percent in a dimeric state is 73%; the stoichiometry N is 2 and 4.
